Earlier results, collected in PMC10423694.

Columns and labels:
M1-diUb (Homo sapiens) = M1-diUb (Homo sapiens) (UniProt P0CG47); assay: SPR
[1] = target: ubiquitin monomer (Homo sapiens) (UniProt P0CG47); assay: SPR
K48-diUb (Homo sapiens) = K48-diUb (Homo sapiens) (UniProt P0CG47); assay: SPR
K63-diUb (Homo sapiens) = K63-diUb (Homo sapiens) (UniProt P0CG47); assay: SPR
ubiquitin (Homo sapiens) = ubiquitin (Homo sapiens) (UniProt P0CG47)

Chain of NEMO (Q9Y6K9 whole entry): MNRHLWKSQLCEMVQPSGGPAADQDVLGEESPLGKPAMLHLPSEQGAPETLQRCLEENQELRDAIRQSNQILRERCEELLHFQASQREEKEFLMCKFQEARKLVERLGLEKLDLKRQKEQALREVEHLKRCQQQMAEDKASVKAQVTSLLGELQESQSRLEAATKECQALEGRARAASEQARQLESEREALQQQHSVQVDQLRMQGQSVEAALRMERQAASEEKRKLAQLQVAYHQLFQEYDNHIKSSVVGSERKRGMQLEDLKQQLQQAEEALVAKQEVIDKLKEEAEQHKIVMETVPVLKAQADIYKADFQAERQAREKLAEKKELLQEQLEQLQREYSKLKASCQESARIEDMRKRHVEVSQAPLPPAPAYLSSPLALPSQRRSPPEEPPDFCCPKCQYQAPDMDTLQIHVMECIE
Chain of UBQLN2 UBA (Q9UHD9 578-624): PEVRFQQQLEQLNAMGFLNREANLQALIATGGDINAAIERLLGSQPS

Row | Kd (M1-diUb (Homo sapiens)) | Kd [1] | Kd (K48-diUb (Homo sapiens)) | Kd (K63-diUb (Homo sapiens)) | Kd (ubiquitin (Homo sapiens)) | Substance
1 | 4.5 µM | 152 µM | 169 µM | 140 µM |  | NEMO (from UniProt Q9Y6K9)
2 |  |  |  |  | 8 µM | UBQLN2 UBA (from UniProt Q9UHD9)
